Measured values as given in US20150216933A1, “HEMATOPOIETIC STEM CELL GROWTH FACTOR” (DUKE UNIVERSITY, priority 2008, published 2015).

What was measured:
BM 34−KSL cells [1] = test: Competitive repopulating unit (CRU) assay of 34−KSL cell progeny cultured with TSF or TSF+PTN (Example 2); format: in vivo, mouse
Description: BM 34^−KSL cells were either isolated for injection into recipient animals, or placed into cultures containing TSF alone, TSF+PTN, TSF+HUBECs+goat IgG, or TSF+HUBECs+goat anti-PTN. Recipient C57BL6 animals (CD45. 2^+) received 950 cGy total body irradiation (TBI) and were then injected via tail vein with limiting doses of BM 34^−KSL cells or their progeny following culture. 1×10^5 host BM MNCs were co-injected-into recipient mice as competitor cells. Multilineage hematologic reconstitution was measured in the PB by flow cytometry over time post-transplant as previously described (Reya, et al, Nature 423:409-14 (2003), Salter et al, Blood 113:2104-7 (2009)). Animals were considered to be engrafted if donor CD45. 1^+ cells were present at ≧1% in the PB (Chute et al, Blood 100:4433-9 (2002), Chute et al, Blood 105: 576-83 (2005), (Chute et al, Proc Natl Acad Sci USA 103, 11707-12 (2006)). CRU estimates were performed using L-Calc software (Stem Cell Technologies) as previously described (Reya, et al, Nature 423:409-14 (2003), Chute et al, Blood 109:2365-72 (2007), Chute et al, Proc Natl Acad Sci USA 103, 11707-12 (2006)).
In order to determine if treatment with PTN could induce functional HSC expansion in culture, competitive repopulating unit (CRU) assays were performed using limiting dilutions of donor CD45. 1^+ BM 34^−KSL cells transplanted into lethally irradiated CD45. 2^+ C57Bl6 mice. Peripheral blood (PB) was collected from primary recipient mice at 4 weeks, 12 weeks and 24 weeks to assess the engraftment of donor CD45. 1^+ cells in the PB of recipient mice. […] 1^+ donor cell engraftment in the PB compared to mice transplanted with the identical dose of day 0 34^−KSL cells and mice transplanted with the progeny of 34^−KSL cells cultured with TSF alone (FIG. 6C, P=0.0008 and P=0.001, respectively). […] The PB engraftment of multilineage donor CD45. […] As expected, the CRU frequency within the progeny of 34^−KSL cells following culture with cytokines alone (TSF) was reduced to 1 in 58 cells (95% CI: 1/31 to 1/108). Conversely, the CRU frequency within the progeny of 34^−KSL cells cultured with TSF+PTN was 1 in 10 cells (95% CI: 1/5 to 1/20). Therefore, the addition of PTN induced a 4-fold increase in HSCs compared to input and a 6-fold increase compared to the progeny of TSF alone. […] 1^+ cell reconstitution at all time points through 24 weeks compared to mice transplanted with day 0 34^−KSL cells or their progeny following culture with TSF alone (FIG. 6F). This corresponded to an increased CRU frequency in the PTN-treated progeny compared to input 34^−KSL cells at all time points. […]

BM 34−KSL cells [2] = test: Liquid suspension culture of BM 34−KSL cells with TSF with and without PTN x 7 days; format: cell-based, mouse
Description: The above “loss of function” studies strongly implicated PTN as a secreted growth factor for HSCs.
Purified BM 34^−KSL cells were isolated from C57Bl6 and B6.SJL mice (Jackson Laboratory, Bar Harbor, Me.) via flow cytometric cell sorting as previously described (Reya, et al, Nature 423:409-14 (2003), Salter et al, Blood 113:2104-7 (2009)). Liquid suspension cultures of BM 34^−KSL cells were supplemented with IMDM+10% FBS+1% pcn/strp+20 ng/ml thrombopoietin, 120 ng/ml SCF, and 50 ng/ml flt-3 ligand (“TSF” media) with and without recombinant (human) PTN (R&D Systems, Minneapolis, Minn.). Non-contact HUBEC cultures were conducted using 0.4 μm transwell inserts (Corning, Lowell Mass.) and supplemented with TSF media with and without goat anti-PTN or isotype control antibody (R&D). Phenotypic analysis for KSL cells was performed as previously described (Chute et al, Blood 109:2365-72 (2007), Salter et al, Blood 113:2104-7 (2009)).
Since PTN has no known function in regulating hematopoiesis (Meng et al, Proc Natl Acad Sci USA 97: 2603-8 (2000)), an examination was first made as to whether BM stem/progenitor cells expressed one or more of the PTN receptors, receptor protein tyrosine phosphatase β/ζ (RPTP β/ζ), Syndecan or anaplastic lymphoma kinase (ALK) (Stoica et al, J Biol Chem 276:16772-9 (2001), Landgraf et al, J Biol Chem 283:25036-45 (2008)). The majority of BM MNCs and c-kit+sca-1^+lin^− (KSL) stem/progenitor cells expressed RPTP β/ζ (n=3, mean 87.0%±8.8 and 89%, respectively; FIG. 6A), whereas neither population expressed Syndecan or ALK (data not shown). In order to determine whether PTN might be a growth factor for HSCs, C57Bl6 BM CD34^−KSL cells, which are highly enriched for HSCs (Kiel et al, Nat Rev Immunol 8:290-301 (2008), Salter et al, Blood 113:2104-7 (2009)), were isolated by FACS and placed in liquid suspension culture with 20 ng/mL thrombopoietin, 120 ng/mL SCF and 50 ng/mL Flt-3 ligand (“TSF”) with or without 10, 100 or 1000 ng/mL PTN.

34−KSL cells = test: Competitive repopulating assay at 4 weeks (Example 1); format: in vivo, mouse; details: lineage repopulation in transplanted mice
Description: 34^−KSL cells from B6.SJL mice, carrying the CD45.1 allele, were sorted into 96-well U-bottomplates (BD) containing IMDM+10% FBS+1% pcn/strp. Day 0 34^−KSL cells were either isolated for injection into recipient animals, or placed into cultures containing TSF, TSF+recombinant PTN, co-culture with HUBECs+goat IgG, or HUBECs+goat anti-PTN. Recipient C57BL6 animals, expressing the CD45.2 allele, received an LD100/30 dose of 950 cGy total body irradiation (TBI) using a Cs137 irradiator and then transplanted via tail vein injection with 10, 30 or 100 34^−KSL cells or their progeny following culture. A rescue dose of 1×10^5 non-irradiated CD45.2 MNCs were co-injected into recipient mice. Multi-lineage hematologic reconstitution was monitored in the peripheral blood (PB) by flow cytometry, as previously described, at 4, 8, 12, and 24 weeks posttransplant. PB was collected via submandibular puncture; cells were treated with RBC lysis buffer (Sigma-Aldrich), and washed twice prior to staining with FITC- or PE-CD45.1, FITC-CD45.2, PE-anti-Thy 1.2, APC-anti-B220, APC-anti-Ter-119, or PE-anti-Mac-1 and PE-anti-Gr1. Animals were considered to be engrafted if donor CD45.1 cells were present at >1% for all lineages (Zhang et al, Nat. Med. 12:240-245 (2006)).
For the competitive repopulating assays, recipient CD45. […]

[3] = 100 ng/mL PTN added to TSF, 7 days
[4] = increasing doses (10, 100, 1000 ng/mL) of rPTN with TSF, Example 1

B1: PTN: Pleiotrophin, heparin binding growth factor; recombinant human PTN purchased from R&D systems (protein, UniProt P21246 33-168, looked up)
Pleiotrophin: GKKEKPEKKVKKSDCGEWQWSVCVPTSGDCGLGTREGTRTGAECKQTMKTQRCKIPCNWKKQFGAECKYQFQAWGECDLNTALKTRTGSLKRALHNAECQKTVTISKPCGKLTKPKPQAESKKKKKEGKKQEKMLD
BM 34−KSL cells [1]; 12 week CRU
  increase in HSCs compared to input: 4 fold
  increase in HSCs compared to the progeny of TSF alone: 6 fold
BM 34−KSL cells [1]; 12 weeks post-transplant, vs day 0 34−KSL cells and progeny of TSF alone, 100 ng/mL PTN
  increase in CD45.1+ donor cell engraftment in the PB: > 10 fold
BM 34−KSL cells [1]; 24 weeks post-transplant
  CRU frequency, fold increased compared to input 34−KSL cells: 4 fold
BM 34−KSL cells [2]; [3]
  increase in total KSL stem/progenitor cells compared to TSF alone: 17.7 fold
  increase in total cells compared to TSF alone: 6.4 fold
BM 34−KSL cells [2]; addition of 10 to 100 ng/mL PTN to TSF
  total cells, % KSL cells and total KSL cells: dose responsive increase
BM 34−KSL cells [2]; [4]
  KSL cells in culture compared to the progeny of cytokines alone: significant increase
  total cells in culture compared to the progeny of cytokines alone: significant increase
34−KSL cells
  multilineage differentiation potential of HSCs: did not alter the normal multilineage differentiation potential
